{"source": "a protein production outcome set (Wang et al. 2014)", "test": "label from the status in PepcDB records"}
{"sequence": "MAQLSARAREDPAAVVDCLPELRQELATLDPRPREHAAEVVATIAHHYPEAARTAVDDIRPLLSDANPGVRAEAARALAEVATTFPDAVYPSVCDLLDRLTDDHYESRVNAAWALAELATEQPAGLRPAVEALCGVLTDDVAAVRAGGVWALAELAEEYPEPVRNAVPALRRLLDDDATLVRVHAARALAVLAETHPDAVEPARVDLEAFGNGEPEDLRKAVTFALAQLDEQTTEAKATSTAGATIDDPLPEEEWIFGGSDTETTATSSGLSAGGIPETVPDVPTPDLSYDDLKKQTTVENGDLSAVYRAAASTENGTVPVALKELRPSDGATLDSDLAHEAYTEARRWEGLDDHDHIVTLVDYGREPTVWFAMEYMDAGHLAEVADSLAFEHRLWSALVLTRAIRRAHRAGILHLNLKPENVLFRTVDDGWAVPKISDWGMEIQPHQDDHDVVPRYAAPEQLADDGRTDGVTDVYQLGRAFYQLFTGRPAFETTPECPADIVEAEPPAPSDIASVPAAVGDIIRTAMAPSQPDRYGAVVYLQEELETICADHGVPTT", "values": [{"measurement": "protein production", "result": "failed"}]}
{"sequence": "MGGKRHQNSGKGGKGRAKDAASAPQPNAGKVTLEGRSFLYVGGRDCQVAHLRQIASSYGAELIHHDGGLREAVSRIDRVLPSVDCVFCPIDCISHDACLRVKTGCKKWGKAFVPLRNGSKSSLEHHHHHH", "values": [{"measurement": "protein production", "result": "not failed"}]}
{"sequence": "MSRPADKPQPFYFAYGSNMNPAQIEARCRKPEVVATARLPDHRLGFFGSSKIWDGGEESAQPEPGADLWGVVYRLSFHDAEILDTWQKVWLDGTGPYFHFPTQVFDAEGRNYPVLLYKRDVLGPRQKPSAPYLDHIIAGAMARALPPPYIDLLRAIPTCQASTPVPRKASFNPEFFAGLACQCGDLEHHHHHH", "values": [{"measurement": "protein production", "result": "failed"}]}
{"sequence": "MDAAVVGGGPAGSLAAILLGKSYDVALFEEHQSAGFPVQCAGLVSDKCYKKLKEHCKAEKAIENHIKGAFFFSPSGKIVLEGRGEAVVVERKILDRLLFERAAERAKVFVKEKARLNGFRIITPSREVSAEKIIGADGVNSTVREHFGFPTMGFFTAVQVEAKFEPLDENCVELYFGGNWSDSFFAYAIPLGDTARIGVVSRSSPLRYLENLMKRHPSVSGRVEGSAVELNAGAIPDRLVKFSKRDVALIGDAAGMVKPYTGGGLYYHLIAAEKLAESFPDLKGYEKSYLKEMGREYRFGYAVRKLYSLPDEKLEQLFSAMADFDFRGVHMDSPSTLIRKAADISFRLLRKPSLAFYLVKSLFLLEHHHHHH", "values": [{"measurement": "protein production", "result": "failed"}]}
{"sequence": "MENDDVMTPPWLTPMLRADYFVTCSIHSQSSKSECNLFCLDCSGNAFCSSCLAHHRTHRVIQIRRSSYHNVVRVSEIQKHIDISCIQTYVINSAKIFFLNARPQCRTGKSLNKTCQICSRNLLDSFLFCSLACKLEGVKNGEDPNLTLFHSGKSDDSSKIINTGICSRLIDGISIAVDDQRSETAGVLSPETPSIESHRNYPMKSRRKGIPQRAPF", "values": [{"measurement": "protein production", "result": "failed"}]}
{"sequence": "VTSDNAAFEGTFKEMFRRHAAGVAIITVNYNGTPYGFTATSVASLSAQPPRFTFNMARSSSSWPAIANTTHIGVHMLGLDNQELADRFARTKNRFEGDHWELGPYEVPILKDVAGWLIGKIQMRLSFENNAVVVVEVVEGQVGEDGTPLLYHSGAYSQPVPLDYEI", "values": [{"measurement": "protein production", "result": "not failed"}]}
{"sequence": "METSMRYTSNSKSMKIHAKEKVPVNSKTHLQLHGELDTGTGAPSYFCAMIRHFFPEASTGLGVGLHYDKRQKLRCLVRGKKEFPVRADKRVTFNIKGRCDIDQDLNQKNPKGAAEFAWNIMDFKEDQDVRIKVGYEMFDKVPYMQIRENNWTLNANMKGKWNLRYDL", "values": [{"measurement": "protein production", "result": "failed"}]}
{"sequence": "MAFDAARYVHRYYASLAPAPGNEYPRLRAWEYLWEYVWDPSRSWDDLTAPEQLDTTALHLGFYLANWGMFRGSSGLLQNSNLDLMKALARQLFSGAGPELFELSLVDFAGNGARLAHNRKLLETVLGSMDALSSRVSWTDTLKSKILLGVWGEFPALDRHYVAACRALYPRRGLTSVNGGTLTALHRLIGEERLSFPRLETARKGLLYPTGRLADMAFFQYGLENALEHHHHHH", "values": [{"measurement": "protein production", "result": "not failed"}]}
{"sequence": "AEGQTVYWHAWGGDPKINAFIAWVGEQARARHGFMLEQVKLADTTEAVARVLAEKQAGRTEGGAVDLIWINGENFAAMKAQGLLSEPFAESLPNWTHVDVAGKPAVVTDFTEPTGGLESPWAMAQLVFEHDSARLPAPPRTLAQLLAWIEVNPGRFTFPQPPDYLGTTFLKQVLYGVIEDPGLLQKPVDPATYETVTAPLWTWLDRAEPYLWREGRAYPANEPALGQLFADGEIAISFAFNPGRASAAIAAGELPETVRTFTLEGGTIGNASFVAIPFNAAHAAGAKVIANLLLDPEVQARAQDPAVLGFQTVLDVAALPEPDRARFAAL", "values": [{"measurement": "protein production", "result": "failed"}]}
{"sequence": "MNHRSVRGICATLGVLLVIGCSGPDAKKAKFYAKGKELYDKGDYAKAALEFKNAIQIDPKYAEAYHMLGLVEMKKGNIKGAFGNFTKAVELNPQHQEARLQLGRIYLGAGAPDEAMKEAVEVLKINPASEDAQLLKGAVLIARKEKGKARELLEGLVAKGVKKPDAYSLLASIHALDGNAKDAEAILRKGLAINPSSSDLHLTLAGLCVGTGRTDEAISLLQRVVSLEPGRTDHRLKLAALCWDTGKVAEARKALTDLVAIAPEKEENRLQAAGFLAGKGEADEAEKLLKEGIAGKGKNYKLRFALADLYLNTGKGDQAVTLLTETAGLDKASRQESLQAKNALAQIALDRNRVDEAVKLVTEVLKESPKNTDARFLKGNIHMMKGEGAQAVAEYRTVVTDNPQSVPGFIRLAEAHLLNREKNLAFDNLQNALKIDPENRDALVALARYHVMQKDMKNAEAALRKVLAKSPNDLEAKAELGDLFLAAGDLKRAEAEYGELKRKAPGLPVGYVKMGDIYLHRGKSDKALAELEQAVRLNPSSELLAGSLARLYTRLGKFDKAEFLLDQRLKQNPNDAASYTLLGQMNVARNQYGKARQAYEKALSLNGSNWSAANDLAFLLAETGSGADLDRALTLIEKVKQSRPDDPRVLDTVGWIYYKKGNAGKAVEILSQVHRKTGDSPVIDYHLGMASYKAGDKARAKELLTKAMTSKSGFAGREEAVKTLGIIKG", "values": [{"measurement": "protein production", "result": "failed"}]}
{"sequence": "ATEATNATNNQSTQVSQATSQPINFQVQKDGSSEKSHMDDYMQHPGKVIKQNNKYYFQTVLNNASFWKEYKFYNANNQELATTVVNDNKKADTRTINVAVEPGYKSLTTKVHIVVPQINYNHRYTTHLEFEKAIPTLADAAK", "values": [{"measurement": "protein production", "result": "not failed"}]}
{"sequence": "MDRDSSMQAKNLDAQCNPDLKMASANSETLASATHELKIMDVEGGALVDPDHIEEVETSMVIVVDDDDGDVAMVVEEDKHPMRDDPCIEDIMDDEHAPLVAELQSALNNPDDKQASEDPLLEDQEREPDAMSTKTEPSSDAESSHSYHDPMGLLERIEIHDPGDSQDDDDEDDESSNGGGVDGGMRRKMPRAQRWLLWMKRWPWILHEDSDGTLAFCLYCNISINVNNRSRHIQQHNVSLSHQERECNYLAFKKSEEETRGAISDNEIKHEFGTKSYVAAMKQKRISETEAFNNFNWLRWLRWHPWLERSMPTGTIGTCRICSVRMNVEFVYLRKRHETTKGHMEALRNLDSDKRSRKRKRSKSNSVTNSGGDEAEREKESEPEVGPEDAQDTPVVMMNGDVDSGDDPGKWCALIPDTNPQQCRCTLCNCTMAITSFLRHCKTRAHCHMLSTPAEKGSSDIRGIWAVFADMHPWLIADPEDPSIGYCSVCRKRFMYGNSEIKRKNHEKSEKHTLALASAKAGIEVGSADGRGGDNMDEEEAAASDQAQSSQTDDSEDNDDDNWSEIQKLGKGFAHKSSSEPRKATVRAGVRFYPWLCYSKDRKTQICKFCRVRFHNEAAKARHELSARHVKLVKQFKMRQAKLHQGTNTQTKHNAQDDEESQEQDEEYGEEEEDAEEDSQSNFDLGTVQARKTARADNKLFVKPIPATMKGKVMVWKGRFPWLSYKKNEQRGNYAWCKLCEVSLYLPSSKWASKHQRTSRHIRLRIDRKRNGGNPLKTSNKNSGEISTVVATASALASAEARQKAAMAELQAKYDWLDPDANDENHCHCRVCDSRLPIKVFYLRQHDASRKHVENKERQRANAAAAANAPSVSPTSTVDAERQESGMDKESENDMSVRSDGSTAEPLAKRSRRSMEVRRIIRALRDSMGKRQEERSQMDMARDMICSSFDIVTRLRTLERESVAHNESMAQAPPSVTVSPIKPPEPRHVMDLFFDSISPTMKSLPPDLAAEGKSKIMQLVCSLELRAMQRNATTPTPATVSASSKWPSSTTVTPVKTPPAPISAPLASVDADLHSSVVTTPHEYNNGQNNNNDKETVPKEPVTGASSAQVTINGSAKDLPENIRRILTSNQTQVTNRLETDSVRCVPLDKLTTQSRTNVNGRLSQGGTSEAPSTPQADLSNGNTLAMIRQIRVNNNNSSKITVTNTPQMQQPQQAQASITSSTPIMRGGPSSNGCQITTFRTMVNHNRRP", "values": [{"measurement": "protein production", "result": "failed"}]}
